Target: T1, Human recombinant TNFα (rhTNFα) (human, UniProt P01375 77-233)
T1 construct: Soluble recombinant cytokine added to L929 cells; also called huTNFα; human TNF
Experiment: SPR (BIAcore); antibody captured on a goat anti-huIgG Fc surface, huTNF injected at 25 nM

T1 sequence (P01375 77-233 limits assumed): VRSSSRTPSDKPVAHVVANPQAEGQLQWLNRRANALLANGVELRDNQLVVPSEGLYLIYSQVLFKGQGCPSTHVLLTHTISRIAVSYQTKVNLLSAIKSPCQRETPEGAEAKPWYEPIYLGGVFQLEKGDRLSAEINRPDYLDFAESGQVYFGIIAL

Stoichiometry: 2
B1: AB441 (antibody, V domains shown)
VH: EVQLVQSGAEVKKPGASVKVSCKASGYTFANYGIIWVRQAPGQGLEWMGWINTYTGKPTYAQKFQGRVTMTTDTSTSTAYMELSSLRSEDTAVYYCARKLFTTMDVTDNAMDYWGQGTTVTVSS
VL: DIQMTQSPSSLSASVGDRVTITCRASQDISQYLNWYQQKPGKAPKLLIYYTSRLQSGVPSRFSGSGSGTDFTLTISSLQPEDFATYFCQQGNTWPPTFGQGTKLEIKR

From US20170218091A1 (AbbVie / Abbott, published 2017)
